Results published in article PMC6237275.

Target: His–CtBP1 (UniProt Q13363)
Assay: SEC

His–CtBP1 (from UniProt Q13363 1-440) (natural protein)
stoichiometry N: 2
